Experimental data: the DeepSol protein solubility set

Experiment: soluble on expression in E. coli; label from the status in PepcDB or PDB records
For “MGSDKIHHHHHHKAVPLASINGEWNIIEVNGSKVTPGESRTLPFITFDTATGRVSGNSGCNRMMGSFDVNAKPGSMELKGMASTRMMCPDMTTERNVLGALAQVKGYKKAGKDKMFLCNESNRPVVVLEKKEADVKLSVLNGEWKIKEVNGEAITSGMEKQPFIAFDVKKKTLHGNAGCNLINGGFETSTTNAKSISFPGVASTMMACPDMEVEGKILKAMNEVKSFDKLSGGGIGLYDANNALVIVLEK”, the “soluble on expression in E. coli” value was “not soluble”.
With “MGSDKIHHHHHHKDLLGREVEIPSNVNRIVAVGPGALRLIAYLKATDMVVGVEDFEKLRPYGRPYILAYPELKKLPSVGPGGPGKLPDLESLITLQPDVVFITYVDRKTAKDIQEKTGIPVVVLSYGNLGTFEDEDLFRSIELAGKILGREERAHEVVDFIRKAQEDLVTRSEGVESPTVYVGGIGYKGAHGIDSTEAKYPPFVVLHARNVVDELGEGHKFIDPEKLLVWNPEYIFIDENGLSLVLDDYSKHREFYESLSAVKRGKVYGILPYNYYTTNIGTALADAYFIGKVLYPERFTDIDPEEKADEIYEFLLGKRVYGEMAEQFGGFGKIDLPSGRILRGTW” the “soluble on expression in E. coli” value was “not soluble”.
For “MGSDKIHHHHHHKPGREFYASDIRESMEKGDKLAILMVHFGSAYPEARTQVLDVMNKRVKEAFPDVEVRQAYSARSVVSRLRAQGVWVQLPADALVELRDQGFTHVIIQPTIIIEGVEMEAIRKEAEQRKGLFKDLRVGNPLLYDDADYEAVMKAVSSPSGVTKNGAKLLVAHGTYHASNSAYAKLGYMFQTKGMKDYYTGTREGFPTIENVGEQMRQAGHKRVQLIPFMFVLIRGTENTVTDFWQKGLRQQGFDVDIYLKPLGENPAIRSLFIDHIRFAMKYKRATIFDRKKLYTH”, the “soluble on expression in E. coli” value was “not soluble”.
With “MGSDKIHHHHHHLAAEIIAVTQQKGGVGKSTIAMHLGAAFHEKGKRVLVVDADGQNTLIHWASASSDGDTGIPFPVVNLSEAGSQIHREIKKFVADYDIIVVDCPPSITEKVSGVVLLAASVAVIPTSSSPADYWSSIGLVKLVQQAQLMNEDLRAVFLLNKTEEKRMLTRELKRALEELGFPLLKTQIPTREAYKQAMALGQTVLQMNDRGAKLAAIEVRACANEIAALLP” the “soluble on expression in E. coli” value was “not soluble”.
With “MGSDKIHHHHHHLAARNFPPVLPFSPRKIAVLHAKAVGDFIVILPALDAIKRTYPEAELILLAKPWVKEFFSGRPSPVDRVLSLPPLAGVNDPVESKGRVPSTGSGVYPVEVELFCQAMQGEKLDVVIHMQGDGKSVNPFINKFAARVTAGMCNPPAESLDRSIPYVHYQSEVLRNLEVASLIGARTTSTGFEPRIEVTESDEQETESVRQTIKGKPYVVIHPGADDIRRVWPAVRFAEAADCLLEKGYAVVVTGTPKEEERVATVIRAMSRPAIPCTRLGLCGLAALLQHSALVISNDTGPLHLARAVGARTVGIYWAPNILNWGPLSRDRHRLAIGWQLECPQCGIRPVSPWPFQPQTSDCSHPYSFVESVPVAEVLALATELLGLTTEH” the “soluble on expression in E. coli” value was “not soluble”.
With “MGSDKIHHHHHHLANLGFDFSPDFRPLAARMRPRVLSEYIGQSHLLGEGKALRVALEANRAHSMLLWGPPGTGKTTLAELIAHYANAHVERISAVSSGVKDIRAAIEQAKAVAQSRGQRTLLFVDEVHRFNKSQQDAFLPYIEDGTVIFVGATTENPSFELNNALLSRARVYLIHKLTETEITEIIIQALEDTERGLGKRQLIIPPEVMAELTHVSDGDARKALNLIELMSDLVADGDAVNLEMLSQVVGHKAAGYDKNGDQFYDLISAVHKSIRGSAPDAALYWFCRILEGGGDPLYVARRLLAIASEDIGNADPVAMTVALNAWDCFHRVGPAEGERAIAQAVLYLASAPKSNAVYTAFSAARELAHATGHEAVPNHLRNAPTKLMKTLAVGEGYRYAHDEPNAYAAGECYLPPSLEGQQFYQPTERGFEKRIKEKLAQLNQLDGHSRVKRYD” the “soluble on expression in E. coli” value was “not soluble”.
With “MGSDKIHHHHHHLELPLPPPGEDIVGQVHVIKAKYEDTFADIGTANDLGYLEMIAANPGVDPWLPGAGTEIILPTRFVLPPGPREGIVINLAEYRMYYFPKGESVVYTFPLGIGREGWGSPIANTRITAKTPNPTWTPPASIRKEHAEDGDILPTVVPAGPDNPLGPFKFTLGVPGYLIHGSNKKFGIGMRTSHGCFRMFNNNVLELSKMVPVGTPVRIINEPYKFGISAGKVYLEAHTPLDDQGNPSVVDKHTAVINALLKREDLANNLRMNWDMVRDVVAAEDGMPVEIAVPVENQGAAPMVTSIPPELQ” the “soluble on expression in E. coli” value was “not soluble”.
With “MGSDKIHHHHHHLGFKIEAELLQAMKDLKDSVPASGSERVRNEFIQILLSELPSQGIRRLLELGLLERLIPELMPAIGFDTRSSYHDKDVFEHSLAVLDNTEPNLTLRLAALLHDIDKPNSLTVDEDGEGYCYGHASGGSEIARTILGRLNFDRKTIKAVSAIIKEHMNDFENISELSIKRLIRRVGPDNIDRLFELQLADIKGSKLSSRSPERITKTRNKCFEVLSRREPLTVHDLDISGYDLFSLGYPPGKEIGEAMDYLLDQVINNPSLNQRDTLIALLMNQ” the “soluble on expression in E. coli” value was “not soluble”.
With “MGSDKIHHHHHHLGILDAPAVQPSKVGLEALYAKTSASLGLFHTSLAGRHFAPCKILVVGDSISEGAGATLNIRNRWQDRLKENLRSRFPTDGSPGTTLHYVPAMNVVNMPGDMAVRSAGVTTGTSFGFGARHAQLTAAGHTVTFTVTGTSAKVVYPKSSGGGSFTWQVDGGTVSSAVSQSAGSLTDGFTTDIPLGASGSHTVVIAWVSGGSVFIDGLLVYNGDETKGIHVIDGAHSGWGAQNFQLNGIQFYQGSLTTMLQPSLVIIALGINDFAFGSLSIANYKIHMQSNIDRYRGAIPTKPPSILLVAMHRRSPVSAVATWAEYVQAMKELAQANDGVAFLDLSARLPQVSGDTRGLYADEVHPANLGHSAIADNVTSFIVPR” the “soluble on expression in E. coli” value was “not soluble”.
In the case of “MGSDKIHHHHHHLITVQDLELRAGARLLMDQVSFRIDKGDKIGLVGRNGAGKTTLTRVLAGEGLPAAGKVTRSGEIGYLPQDPRTPDMEQLARDRILSVRGLDIAVGKLRLAHEEMASEDAAVQRKAMNRYDRLESEFLAAGGYAAEAEAAAICSNLALPDRLLNQPLKTLSGGQRRRVELARILYSDAETMLLDEPTNHLDADSIAWLRDFLKNHQGGLIVISHDTELLEATVNKVFLLDANRAQIDFYNMDWKRYLQQRETDERARKRERANAEKKAQVLFDQANKMRAKATKAVAAQNMAKRAERLLSGLEAVRENDRVAALRFPDPSPCGKTPLTADGLSKSYGSLEIFTDVDLAIDRGSKVVILGLNGAGKTTLLRMLAGVDKPDTGEVIAGHGLKVGYYAQEHETLDVDRTVLQNMRSSAPDMNDSEVRGILGSFLFSGDDVDKPAGVLSGGEKTRLALATIVASSANVLLLDEPTNNLDPASRTEILGALRNYTGAVVLVSHDEGAVEALNPERVVLLPDGVEDHWNEDYLDLITLA”, the “soluble on expression in E. coli” value is reported as “not soluble”.
For “MGSDKIHHHHHHLKAAIVTHLDQAPIYGDFPAPKPAPKQVLITVLASSVNQRVRSQADGSHYTKTPELPFIPGLDGVGRTSDGQLVYFLTRDPKFGALAEQTVTQQQLMFPLPEDADPAQIAASVNPAMAGWMALRVKAGQVVGKRVLVLGATGAAGTAAVQIAKTMGAAHVAGVGRNPDKLAALSDLGADTTVQLGDTAALAALPPADIVLDFLWGAPSATVMMTLLKARRDHAAKLIWIEIGGAAGPTLSLPAAALRSTGLTLVGSGQGSLTLADYQRELPALFTALTAGKFVTPTTVLSLSQVHDHWQDRGAARLVFQP”, the “soluble on expression in E. coli” value was “not soluble”.
For “MGSDKIHHHHHHLRMSRIQARLLQAIVRPALKTNLLKHAAWRVVLKLRNEFAHAVPPVELETTFDENIRILTSLSDHIESQVFWQGFQEADEGVILLLKRFLPSDGSFIDVGANIGTFTLVAAHRAVRGQVHAFEPSAHHFARLAHNVELNDFKNVALNRKGLYDQPGEAVLFLPSQTGEMNNSGAASLYTSALEETRQVSEAVSLIRLDDYVREKSIGRVDIIKIDIEGAELKALEGARETIARFRPLVFMELDLDNLERAERSPEEVLQYWKSLNYEVSIILLTGETVPVTSPKEFGLHQNLQCRPF”, the “soluble on expression in E. coli” value was “not soluble”.
With “MGSDKIHHHHHHLRVGEVAPTAIDLHIHTIESDGSLSVAGVIQEAAERGVRVLALTDHETTNGVPEAMELGQKHNLNIIPGVELITAFKGKEVHLLGYFSYAAMMHSDLQSRLKELRQQRTYLAFEMVKRLQKDGFTLKWAEVEKIANPEGAVSKGHIMRALHEHENGTIQWPVIAKLFQPYGIAYLPFLEHPFEEAVDLIYTCGGVPVLAHPGLLRDDRMVGELLSYLPMGLEVYYGYWEQREALIQNYKTIAQDKAILTTGGSDFHGLFGPVKLGEIEVPEQCSRELQTFLKLDF” the “soluble on expression in E. coli” value was “not soluble”.
With “MGSDKIHHHHHHLVNFIRKNVLPQFGFSREHSTLYPLGNGHINQTFLVSDKSKSLVLQRINTQIFTDPKVVIQNAANISQHLLIKRQQLHYPLQVVSPIATVAGALYLDLGEQGFWRAIDYLPHSTTIEVVDTLNQAKLAAEAFGHFAEALSDLNPSCIADVIPNFLNLPQRIAQLREAKAGDTHNRFSHCIDWVGLCLSQTDLLATLVQYEAELPIRICHNDTKINNMLFDNRDMSSMAIIDLDTCMKGYLMYDFGDMVRAFCSPETEDSTNLTNVYARPEIVIAAATSYMESLGGIITPLEKRSLWLGTKVMSLMLGVRFLTDYLNGDTYFGVKYQTHNLDRAINQLTIYQSLLQQEAQLMPLFNS” the “soluble on expression in E. coli” value was “not soluble”.
In the case of “MGSDKIHHHHHHMAAALDGIRVLDLSRVLAGPWASQALADLGAEVIKIERPGAGDDTRSWGPPFLKDEDGRETTDAAYFLAANRGKKSLTVDITKAEGQDLVRALAARSHVVIENFKLGGLAKYGLDWPSLRAVNPALVYCSITGFGQTGPYAPRAGYDAMIQAMSGLMSVTGEPDGVAGGGPMKVGVAVTDILTGLYAAFGILAALRHAEATGEGQHIDLALMDTAVACMANQAANALVGERVPGRLGTAHPNIVPYQAFATQDGHLMLAVGNDGQFARLCAIGQRPDLPLDPRFARNRDRVAHRAALLAEIIPMMASRSTDAWIAALESAGVPCGPINTLDRVFADPQVIARGLRVDGTHAEAGTVPMVRNPLLLSATPPTHTAGPPTLGQHTDGVLSDVLGLTAEDITTLRQKAIV”, the “soluble on expression in E. coli” value is reported as “not soluble”.
In the case of “MGSDKIHHHHHHMAARLREFRRAIGDPDREEFARSIGVSKTTLASYERGESEPTASVLFAYREKHGADVLWLVGGEGEMRGSQLSSAAVAERDFVLMPQYDVCASAGTGRLPVNQMPTSETAFERKFLRDLGGAPDHCFLMWSTGDSMLPSIPDNALLIVDASQTTVDHGRIYVFSVGNAVLVKRANWRMDGRLDLISDNTAGKYPVETFDANRVEDLAVVGRVIFVGHPP”, the “soluble on expression in E. coli” value is reported as “not soluble”.
For “MGSDKIHHHHHHMADFNQYTRWEHQMHGVKLPRWDDLPKFDLYMDQVTALINDVLGPLGIDTVTPAMINNYVKHNVIMAPVKKKYQTMQLTDILMISLLKPMFQTDTVRSGIDQITAGDYPKQAYDNFIGQLEDRLHHLGEDQVQPAAQNLNEKLMQVAVDTVVSRLQSEKLLRLIKRPLRKIEKK”, the “soluble on expression in E. coli” value was “not soluble”.
In the case of “MGSDKIHHHHHHMADFPTRPDEVDAVWLEARLADAGVLDGARIVKVEWQSIGTGQVGDTARFSLTYDRPAPLAPASVAAKFPSSDPTSRQTAASFSLYKREVNFYRDVAGLIDMRVPRAYAALLDDNGCDFVLLFEDLGPCEAGNQLSGCGIDQARDALRQAAALHAATLDHPVLDSEWLQTDPQASAMLRALYPQAQAIFRERYADALDPALMAICDELDECADLWFDRKPARRSFLHGDFRLDNMLFGIRDGQEPIALVDWQTAAVGCGLTDIGYFMGCGIGSGLRRPHEAALLDLYCAEMTRRGVAMTRDEIMDDYRIGALHGVSTAVFSSAFVVRTERGDANFLSMARGACELALEHNSLGALKRRMENA”, the “soluble on expression in E. coli” value is reported as “not soluble”.
